Measured values: article PMC11910620 (Nature Communications, 2025)
Numbering of substitutions follows the chain as printed. Names and notes keep the numbering of the source. Values joined by “and” are separate entries in the source; they are usually repeats but may differ in a detail not shown here. Equal entries are not always repeated.

T1: Msn5 (S. cerevisiae exportin), wild type (S. cerevisiae, UniProt P52918 1-1224)
T1 sequence: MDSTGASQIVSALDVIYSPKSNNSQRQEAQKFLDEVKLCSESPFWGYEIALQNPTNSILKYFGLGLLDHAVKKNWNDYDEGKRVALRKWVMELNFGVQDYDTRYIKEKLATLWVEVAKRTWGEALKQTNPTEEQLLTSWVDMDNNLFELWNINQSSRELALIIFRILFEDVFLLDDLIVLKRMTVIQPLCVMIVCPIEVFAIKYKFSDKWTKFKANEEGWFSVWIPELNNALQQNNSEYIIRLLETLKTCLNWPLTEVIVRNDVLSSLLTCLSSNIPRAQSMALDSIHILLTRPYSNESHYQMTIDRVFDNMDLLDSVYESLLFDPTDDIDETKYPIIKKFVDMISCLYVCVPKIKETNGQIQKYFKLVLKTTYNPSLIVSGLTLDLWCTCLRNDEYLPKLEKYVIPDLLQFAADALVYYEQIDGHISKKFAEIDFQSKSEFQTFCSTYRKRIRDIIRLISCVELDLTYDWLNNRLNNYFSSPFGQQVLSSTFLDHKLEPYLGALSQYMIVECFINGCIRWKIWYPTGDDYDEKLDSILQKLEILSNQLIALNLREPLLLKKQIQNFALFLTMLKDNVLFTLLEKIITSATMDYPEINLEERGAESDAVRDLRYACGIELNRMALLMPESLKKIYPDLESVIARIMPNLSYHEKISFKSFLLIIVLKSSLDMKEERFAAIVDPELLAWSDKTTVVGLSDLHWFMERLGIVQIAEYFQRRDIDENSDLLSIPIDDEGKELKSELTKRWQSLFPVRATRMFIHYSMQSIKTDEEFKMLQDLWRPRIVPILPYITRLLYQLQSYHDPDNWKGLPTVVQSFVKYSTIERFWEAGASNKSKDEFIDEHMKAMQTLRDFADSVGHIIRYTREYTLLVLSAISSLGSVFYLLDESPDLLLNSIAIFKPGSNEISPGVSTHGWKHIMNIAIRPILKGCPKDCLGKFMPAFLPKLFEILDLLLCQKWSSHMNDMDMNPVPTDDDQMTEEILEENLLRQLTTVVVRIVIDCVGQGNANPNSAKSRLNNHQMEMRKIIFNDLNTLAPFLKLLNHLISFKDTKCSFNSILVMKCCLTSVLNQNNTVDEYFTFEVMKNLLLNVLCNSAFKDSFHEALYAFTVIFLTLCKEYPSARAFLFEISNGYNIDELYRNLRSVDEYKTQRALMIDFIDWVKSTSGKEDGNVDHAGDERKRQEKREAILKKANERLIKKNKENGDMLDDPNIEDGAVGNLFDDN

T2: Msn5 RRAA (R393A, R458A) (S. cerevisiae, UniProt P52918 1-1224, RRAA (R393) | RRAA (R458))
T2 sequence: T1 sequence with R393A, R458A

B1: mNeonGreen-Pho4_(3-200), unphosphorylated (domain or fragment)
chain: RTTSEGIHGFVDDLEPKSSILDKVGDFITVNTKRHDGREDFNEQNDELNSQENHNSSENGNENENEQDSLALDDLDRAFELVEGMDMDWMMPSHAHHSPATTATIKPRLLYSPLIHTQSAVPVTISPNLVATATSTTSANKVTKNKSNSSPYLNKRRGKPGPDSATSLFELPDSVIPTPKPKPKPKQYPKVILPSNST
B2: mNeonGreen-pPho4_(3-200) S128A (domain or fragment)
chain: B1 chain with S126A
modifications: phosphorylated in vitro by Pho80-Pho85: pS100, pS114, pS152
B3: mNeonGreen-pPho4_(3-200), wild type, phosphorylated (domain or fragment)
chain: B1 chain
modifications: phosphorylated in vitro by Pho80-Pho85: pS100, pS114, pS128, pS152
B4: mNeonGreen-pPho4_(3-200) S114A (domain or fragment)
chain: B1 chain with S112A
modifications: phosphorylated in vitro by Pho80-Pho85: pS100, pS128, pS152
B5: mNeonGreen-pPho4_(3-200) S114/128AA (domain or fragment)
chain: B1 chain with S112A, S126A
modifications: phosphorylated in vitro by Pho80-Pho85: pS100, pS152
B6: mNeonGreen-pPho4_(3-200) R3mut (domain or fragment)
chain: B1 chain with A120G, V121G, P122S, V123G, T124G, I125S
modifications: phosphorylated in vitro by Pho80-Pho85: pS100, pS114, pS128, pS152
B7: mNeonGreen-pPho4_(3-200) 102–107GKK (domain or fragment)
chain: B1 chain with A100G, T101K, T102K, A103G, T104K, I105K
modifications: phosphorylated in vitro by Pho80-Pho85: pS100, pS114, pS128, pS152
B8: mNeonGreen-pPho4_(3-200) R4mut (L131A/T134A) (domain or fragment)
chain: B1 chain with L129A, T132A
modifications: phosphorylated in vitro by Pho80-Pho85: pS100, pS114, pS128, pS152
B9: pPho4_(1-200), phosphorylated, GST removed (domain or fragment)
chain: MGRTTSEGIHGFVDDLEPKSSILDKVGDFITVNTKRHDGREDFNEQNDELNSQENHNSSENGNENENEQDSLALDDLDRAFELVEGMDMDWMMPSHAHHSPATTATIKPRLLYSPLIHTQSAVPVTISPNLVATATSTTSANKVTKNKSNSSPYLNKRRGKPGPDSATSLFELPDSVIPTPKPKPKPKQYPKVILPSNST
modifications: phosphorylated in vitro by Pho80-Pho85: pS100, pS114, pS128, pS152 (pS114 and pS128 seen in the structure)
B10: mNeonGreen-pPho4_(3-200) R2mut (domain or fragment)
chain: B1 chain with Y111G, L114G, I115G, H116S, T117G
modifications: phosphorylated in vitro by Pho80-Pho85: pS100, pS114, pS128, pS152
B11: mNeonGreen-pPho4_(3-200) S100/152AA (domain or fragment)
chain: B1 chain with S98A, S150A
modifications: phosphorylated in vitro by Pho80-Pho85: pS114, pS128
B12: Msn5 (S. cerevisiae exportin), wild type (natural protein)
chain: T1 sequence

Tests used:
[1] = target: Msn5 (Kap142) (UniProt P52918); assay: fluorescence polarization titration, mNeonG-pPho4; details: reference: wild-type pPho4; sites S114
[2] = target: T1, Msn5 (S. cerevisiae exportin), wild type; assay: fluorescence polarisation
[3] = target: T2, Msn5 RRAA (R393A, R458A); assay: fluorescence polarisation
[4] = target: T1, Msn5 (S. cerevisiae exportin), wild type; assay: cryo-EM structure
[5] = target: Pho4_(1-200) S114/128DD and Pho4_(1-200) S114/128EE; assay: fluorescence polarisation

Molecule | Kd [2] | also measured
Pho4 3-200 (from UniProt P07270) pPho4 S114A | – | KD [1]: weaker; reference 44[26,71]
B1 | 2400 nM | –
B2 | 120 nM | –
B3 | 20 nM and 44 nM and 25 nM | Kd [3]: 2200 nM
B4 | 250 nM | –
B5 | 1000 nM | –
B6 | 280 nM | –
B7 | 110 nM | –
B8 | 150 nM | –
B9 | – | binding result [4]: binds
B10 | 800 nM | –
B11 | 46 nM | –
B12 | – | Kd [5]: 2000 to 3000 nM
